Target: HLA-A*02:01 (Homo sapiens, UniProt P04439, D140Y/D185E/D98H/E176V/E277Q/G131W/G231S/I119V/I121R/I166T/I218V/L300P/L318F/N151K/N90K/P208A/P217A/Q86G/Q94H/R138H/R169H/T345S)
Test: MHC binding assay: UV-ligand exchange with beta2m ELISA (exchange yield)
Settings: binding to HLA-A*02:01, β2m ELISA
Outline: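 Exchange yield reflects how much β2m remains bound, measured by ELISA: streptavidin capture of 100-fold diluted monomers, HRP anti-β2m at 37° C. for 1 h, TMB read at 450 nm. Monomers come from UV cleavage of a conditional HLA-A*02:01 ligand in the presence of the candidate peptide.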

| Substance | Peptide exchange (MHC class I binding score, peptide exchange yield) |
| --- | --- |
| 276 (ALFTFSPLTV; listed as Homo sapiens) [compound 276] | “+++” (≥50 = +++) |
| 277 (LLPPLESLATV; listed as Homo sapiens) [compound 277] | “++” (≥20% = ++) |
| 278 (QLLDVVLTI; listed as Homo sapiens) [compound 278] | “++” (≥20% = ++) |
| 279 (ALWGGTQPLL; listed as Homo sapiens) [compound 279] | “++” (≥20% = ++) |
| 280 (VLPDPEVLEAV; listed as Homo sapiens) [compound 280] | “+++” (≥50 = +++) |
| 281 (ILRESTEEL; listed as Homo sapiens) [compound 281] | “+++” (≥50 = +++) |
| 282 (LLADVVPTT; listed as Homo sapiens) [compound 282] | “+++” (≥50 = +++) |
| 284 (ILLSQTTGV; listed as Homo sapiens) [compound 284] | “+++” (≥50 = +++) |
| 285 (QLLHVGVTV; listed as Homo sapiens) [compound 285] | “+++” (≥50 = +++) |
| 286 (YLFPGIPEL; listed as Homo sapiens) [compound 286] | “+++” (≥50 = +++) |
| 287 (FLNEFFLNV; listed as Homo sapiens) [compound 287] | “+++” (≥50 = +++) |
| 288 (NLINEINGV; listed as Homo sapiens) [compound 288] | “+++” (≥50 = +++) |
| 289 (VLLEIEDLQV; listed as Homo sapiens) [compound 289] | “++++” (≥75% = ++++) |
| 295 (VLDRESPNV; listed as Homo sapiens) [compound 295] | “+++” (≥50 = +++) |
| 296 (FMEGAIIYV; listed as Homo sapiens) [compound 296] | “+++” (≥50 = +++) |
| 297 (VLADIELAQA; listed as Homo sapiens) [compound 297] | “+++” (≥50 = +++) |
| 298 (VMITKLVEV; listed as Homo sapiens) [compound 298] | “+++” (≥50 = +++) |
| 299 (YLLETSGNL; listed as Homo sapiens) [compound 299] | “+++” (≥50 = +++) |
| 300 (ALLGQTFSL; listed as Homo sapiens) [compound 300] | “+++” (≥50 = +++) |
| 301 (FLVEDLVDSL; listed as Homo sapiens) [compound 301] | “+++” (≥50 = +++) |
| 302 (ALLQEGEVYSA; listed as Homo sapiens) [compound 302] | “+++” (≥50 = +++) |
| 303 (AILPQLFMV; listed as Homo sapiens) [compound 303] | “++++” (≥75% = ++++) |

| Substance | Peptide exchange (MHC class I binding score, peptide exchange yield) |
| --- | --- |
| 304 (MTLGQIYYL; listed as Homo sapiens) [compound 304] | “+++” (≥50 = +++) |
| 305 (SIANFSEFYV; listed as Homo sapiens) [compound 305] | “++++” (≥75% = ++++) |
| 306 (ALVNVQIPL; listed as Homo sapiens) [compound 306] | “+++” (≥50 = +++) |
| 307 (ALPVSLPQI; listed as Homo sapiens) [compound 307] | “+++” (≥50 = +++) |
| 308 (SQYSGQLHEV; listed as Homo sapiens) [compound 308] | “+++” (≥50 = +++) |
| 309 (GLFDGVPTTA; listed as Homo sapiens) [compound 309] | “+++” (≥50 = +++) |
| 310 (FLVDTPLARA; listed as Homo sapiens) [compound 310] | “++++” (≥75% = ++++) |
| 311 (RLYTGMHTV; listed as Homo sapiens) [compound 311] | “+++” (≥50 = +++) |
| 312 (IISDLTIAL; listed as Homo sapiens) [compound 312] | “+++” (≥50 = +++) |
| 313 (VLFDDELLMV; listed as Homo sapiens) [compound 313] | “+++” (≥50 = +++) |
| 314 (ALIAEGIALV; listed as Homo sapiens) [compound 314] | “+++” (≥50 = +++) |
| 315 (YLQDVVEQA; listed as Homo sapiens) [compound 315] | “+++” (≥50 = +++) |
| 316 (ILLERLWYV; listed as Homo sapiens) [compound 316] | “+++” (≥50 = +++) |
| 317 (SLAALVVHV; listed as Homo sapiens) [compound 317] | “+++” (≥50 = +++) |
| 318 (GLINTGVLSV; listed as Homo sapiens) [compound 318] | “++” (≥20% = ++) |
| 320 (KMFEFVEPLL; listed as Homo sapiens) [compound 320] | “++++” (≥75% = ++++) |
| 321 (GLFEDVTQPGILL; listed as Homo sapiens) [compound 321] | “++++” (≥75% = ++++) |
| 322 (TLMTSLPAL; listed as Homo sapiens) [compound 322] | “+++” (≥50 = +++) |
| 324 (FLYDEIEAEV; listed as Homo sapiens) [compound 324] | “+++” (≥50 = +++) |
| 325 (FIMPATVADATAV; listed as Homo sapiens) [compound 325] | “+++” (≥50 = +++) |
| 326 (FLPEALDFV; listed as Homo sapiens) [compound 326] | “+++” (≥50 = +++) |
| 327 (GLAPFTEGISFV; listed as Homo sapiens) [compound 327] | “+++” (≥50 = +++) |

| Substance | Peptide exchange (MHC class I binding score, peptide exchange yield) |
| --- | --- |
| 328 (ALNDQVFEI; listed as Homo sapiens) [compound 328] | “+++” (≥50 = +++) |
| 329 (FLVTLNNVEV; listed as Homo sapiens) [compound 329] | “++++” (≥75% = ++++) |
| 330 (QLALKVEGV; listed as Homo sapiens) [compound 330] | “+++” (≥50 = +++) |
| 331 (KVDTVWVNV; listed as Homo sapiens) [compound 331] | “+++” (≥50 = +++) |
| 332 (YLISELEAA; listed as Homo sapiens) [compound 332] | “+++” (≥50 = +++) |
| 333 (FLPDANSSV; listed as Homo sapiens) [compound 333] | “++” (≥20% = ++) |
| 334 (TLTKVLVAL; listed as Homo sapiens) [compound 334] | “+++” (≥50 = +++) |
| 335 (YSLSSVVTV; listed as Homo sapiens) [compound 335] | “+++” (≥50 = +++) |
| 336 (ILLTAIVQV; listed as Homo sapiens) [compound 336] | “+++” (≥50 = +++) |
| 337 (HLLSELEAAPYL; listed as Homo sapiens) [compound 337] | “++++” (≥75% = ++++) |
| 339 (GLWEIENNPTVKA; listed as Homo sapiens) [compound 339] | “++++” (≥75% = ++++) |
| 340 (ALLSMTFPL; listed as Homo sapiens) [compound 340] | “++++” (≥75% = ++++) |
| 341 (SQIALNEKLVNL; listed as Homo sapiens) [compound 341] | “+++” (≥50 = +++) |
| 342 (HIYDKVMTV; listed as Homo sapiens) [compound 342] | “+++” (≥50 = +++) |
| 343 (SLLEVNEESTV; listed as Homo sapiens) [compound 343] | “+++” (≥50 = +++) |
| 344 (YLQDQHLLLTV; listed as Homo sapiens) [compound 344] | “+++” (≥50 = +++) |
| 345 (VIWKALIHL; listed as Homo sapiens) [compound 345] | “+++” (≥50 = +++) |
| 346 (LLDSKVPSV; listed as Homo sapiens) [compound 346] | “+++” (≥50 = +++) |
| 347 (SLFKHDPAAWEA; listed as Homo sapiens) [compound 347] | “++++” (≥75% = ++++) |
| 348 (ILLDVKTRL; listed as Homo sapiens) [compound 348] | “++++” (≥75% = ++++) |
| 349 (SLTEYLQNV; listed as Homo sapiens) [compound 349] | “++++” (≥75% = ++++) |
| 350 (ALLDVTHSELTV; listed as Homo sapiens) [compound 350] | “+++” (≥50 = +++) |
